The source of these data is patent publication US20220177587A1, “METHODS AND USES OF VARIANT CD80 FUSION PROTEINS AND RELATED CONSTRUCTS” (Alpine Immune Sciences, Inc., priority 2018, published 2022).

Sequences and labels used below:
B1: H18L, R29D, Y31L, Q33H, K36G, M38I, T41A, M43R, M47T, E81V, L85R, K89N, A91T, F92P, K93V, R94L, F116S, T130A, H188D (protein)
chain: VIHVTKEVKEVATLSCGLNVSVEELAQTDILWHKEGKIVLAMRSGDTNIWPEYKNRTIFDITNNLSIVILALRPSDEGTYVCVVRKYENDTPVLEHLAEVTLSVKADFPTPSISDSEIPTSNIRRIICSASGGFPEPHLSWLENGEELNAINTTVSQDPETELYAVSSKLDFNMTTNHSFMCLIKYGDLRVNQTFNWNTTKQEHFPDN
B2: H18L, R29D, Y31L, Q33H, K36G, M38I, T41A, M43R, M47T, E81V, L85R, K89N, A91T, F92P, K93V, R94L, I118V, T120S, I127T, T130A, L142S, H188D (protein)
chain: VIHVTKEVKEVATLSCGLNVSVEELAQTDILWHKEGKIVLAMRSGDTNIWPEYKNRTIFDITNNLSIVILALRPSDEGTYVCVVRKYENDTPVLEHLAEVTLSVKADFPTPSISDFEVPSSNIRRITCSASGGFPEPHLSWSENGEELNAINTTVSQDPETELYAVSSKLDFNMTTNHSFMCLIKYGDLRVNQTFNWNTTKQEHFPDN
B3: S21P, R29D, Y31L, Q33H, K36G, M38I, T41A, M43R, M47T, N48I, V68A, E81V, L85R, K89N, A91T, F92P, K93V, R94L,P109H, I126L, K169I (protein)
chain: VIHVTKEVKEVATLSCGHNVPVEELAQTDILWHKEGKIVLAMRSGDTIIWPEYKNRTIFDITNNLSIAILALRPSDEGTYVCVVRKYENDTPVLEHLAEVTLSVKADFHTPSISDFEIPTSNIRRLICSTSGGFPEPHLSWLENGEELNAINTTVSQDPETELYAVSSILDFNMTTNHSFMCLIKYGHLRVNQTFNWNTTKQEHFPDN
B4: R29D, Y31L, Q33H, K36G, M38I, T41A, M43R, M47T, E81V, L85R, K89N, A91T, F92P, K93V, R94L, S129L, H188D (protein)
chain: VIHVTKEVKEVATLSCGHNVSVEELAQTDILWHKEGKIVLAMRSGDTNIWPEYKNRTIFDITNNLSIVILALRPSDEGTYVCVVRKYENDTPVLEHLAEVTLSVKADFPTPSISDFEIPTSNIRRIICLTSGGFPEPHLSWLENGEELNAINTTVSQDPETELYAVSSKLDFNMTTNHSFMCLIKYGDLRVNQTFNWNTTKQEHFPDN
B5: R29D, Y31L, Q33H, K36G, M38I, T41A, M43R, M47T, E81V, L85R, K89N, A91T, F92P, K93V, R94L, S21P, P74L, Y80N, D90N, T130A, N149S, E162G (protein)
chain: VIHVTKEVKEVATLSCGHNVPVEELAQTDILWHKEGKIVLAMRSGDTNIWPEYKNRTIFDITNNLSIVILALRLSDEGTNVCVVRKYENNTPVLEHLAEVTLSVKADFPTPSISDFEIPTSNIRRIICSASGGFPEPHLSWLENGEELSAINTTVSQDPETGLYAVSSKLDFNMTTNHSFMCLIKYGHLRVNQTFNWNTTKQEHFPDN
B6: C16S, H18L, R29D, Y31L, Q33H, K36G, M38I, T41A, M43R, M47T, E81V, L85R, K89N, A91T, F92P, K93V, R94L, T110A, I118V, H188D (protein)
chain: VIHVTKEVKEVATLSSGLNVSVEELAQTDILWHKEGKIVLAMRSGDTNIWPEYKNRTIFDITNNLSIVILALRPSDEGTYVCVVRKYENDTPVLEHLAEVTLSVKADFPAPSISDFEVPTSNIRRIICSTSGGFPEPHLSWLENGEELNAINTTVSQDPETELYAVSSKLDFNMTTNHSFMCLIKYGDLRVNQTFNWNTTKQEHFPDN
B7: H18L, R29D, Y31L, Q33H, K36G, M38I, T41A, M43R, M47T, P74L, Y80N, E81V, L85R, K89N, A91T, F92P, K93V, R94L, L97R (protein)
chain: VIHVTKEVKEVATLSCGLNVSVEELAQTDILWHKEGKIVLAMRSGDTNIWPEYKNRTIFDITNNLSIVILALRLSDEGTNVCVVRKYENDTPVLEHRAEVTLSVKADFPTPSISDFEIPTSNIRRIICSTSGGFPEPHLSWLENGEELNAINTTVSQDPETELYAVSSKLDFNMTTNHSFMCLIKYGHLRVNQTFNWNTTKQEHFPDN
B8: H18L, R29D, Y31L, Q33H, K36G, M38I, T41A, M43R, M47T, E81V, L85R, K89N, A91T, F92P, K93V, R94L, I118V, T120S, I127T, T130A, H188D (protein)
chain: VIHVTKEVKEVATLSCGLNVSVEELAQTDILWHKEGKIVLAMRSGDTNIWPEYKNRTIFDITNNLSIVILALRPSDEGTYVCVVRKYENDTPVLEHLAEVTLSVKADFPTPSISDFEVPSSNIRRITCSASGGFPEPHLSWLENGEELNAINTTVSQDPETELYAVSSKLDFNMTTNHSFMCLIKYGDLRVNQTFNWNTTKQEHFPDN
B9: R29D, Y31L, Q33H, K36G, M38I, T41A, M43R, M47T, L70Q, E81V, L85R, K89N, A91T, F92P, K93V, R94L, I118V, T120S, I127T, T130A (protein)
chain: VIHVTKEVKEVATLSCGHNVSVEELAQTDILWHKEGKIVLAMRSGDTNIWPEYKNRTIFDITNNLSIVIQALRPSDEGTYVCVVRKYENDTPVLEHLAEVTLSVKADFPTPSISDFEVPSSNIRRITCSASGGFPEPHLSWLENGEELNAINTTVSQDPETELYAVSSKLDFNMTTNHSFMCLIKYGHLRVNQTFNWNTTKQEHFPDN
B10: R29D, Y31L, Q33H, K36G, M38I, T41A, M43R, M47T, A91G, I118V, T120S, I127T, T130A, H188D (protein)
chain: VIHVTKEVKEVATLSCGHNVSVEELAQTDILWHKEGKIVLAMRSGDTNIWPEYKNRTIFDITNNLSIVILALRPSDEGTYECVVLKYEKDGFKREHLAEVTLSVKADFPTPSISDFEVPSSNIRRITCSASGGFPEPHLSWLENGEELNAINTTVSQDPETELYAVSSKLDFNMTTNHSFMCLIKYGDLRVNQTFNWNTTKQEHFPDN
B11: R29D, Y31L, Q33H, K36G, M38I, T41A, M43R, M47T, L70Q, D76G, A91G, S103L, I118V, T120S, I127T, T130A (protein)
chain: VIHVTKEVKEVATLSCGHNVSVEELAQTDILWHKEGKIVLAMRSGDTNIWPEYKNRTIFDITNNLSIVIQALRPSGEGTYECVVLKYEKDGFKREHLAEVTLLVKADFPTPSISDFEVPSSNIRRITCSASGGFPEPHLSWLENGEELNAINTTVSQDPETELYAVSSKLDFNMTTNHSFMCLIKYGHLRVNQTFNWNTTKQEHFPDN
B12: Y53C/L70Q/D90G/T130A/N149D/N152T/H188D (protein)
chain: VIHVTKEVKEVATLSCGHNVSVEELAQTRIYWQKEKKMVLTMMSGDMNIWPECKNRTIFDITNNLSIVIQALRPSDEGTYECVVLKYEKGAFKREHLAEVTLSVKADFPTPSISDFEIPTSNIRRIICSASGGFPEPHLSWLENGEELDAITTTVSQDPETELYAVSSKLDFNMTTNHSFMCLIKYGDLRVNQTFNWNTTKQEHFPDN
B13: K89E, K93E, T130A (protein)
chain: VIHVTKEVKEVATLSCGHNVSVEELAQTRIYWQKEKKMVLTMMSGDMNIWPEYKNRTIFDITNNLSIVILALRPSDEGTYECVVLKYEEDAFEREHLAEVTLSVKADFPTPSISDFEIPTSNIRRIICSASGGFPEPHLSWLENGEELNAINTTVSQDPETELYAVSSKLDFNMTTNHSFMCLIKYGHLRVNQTFNWNTTKQEHFPDN
modifications: CD80 v91 ECD
B14: Y53C, L85R, K89N, A91T, F92P, K93V, R94L, I118V, T120S, I127T, T130A, K169E (protein)
chain: VIHVTKEVKEVATLSCGHNVSVEELAQTRIYWQKEKKMVLTMMSGDMNIWPECKNRTIFDITNNLSIVILALRPSDEGTYECVVRKYENDTPVLEHLAEVTLSVKADFPTPSISDFEVPSSNIRRITCSASGGFPEPHLSWLENGEELNAINTTVSQDPETELYAVSSELDFNMTTNHSFMCLIKYGHLRVNQTFNWNTTKQEHFPDN
B15: L70Q, A91G, I118V, T120S, T130A, K169E (protein)
chain: VIHVTKEVKEVATLSCGHNVSVEELAQTRIYWQKEKKMVLTMMSGDMNIWPEYKNRTIFDITNNLSIVIQALRPSDEGTYECVVLKYEKDGFKREHLAEVTLSVKADFPTPSISDFEVPSSNIRRIICSASGGFPEPHLSWLENGEELNAINTTVSQDPETELYAVSSELDFNMTTNHSFMCLIKYGHLRVNQTFNWNTTKQEHFPDN
modifications: CD80 v125 ECD
B16: T62S, E81V, L85R, K89N, A91T, F92P, K93V, R94L, I118V, T120S, T130A, K169E (protein)
chain: VIHVTKEVKEVATLSCGHNVSVEELAQTRIYWQKEKKMVLTMMSGDMNIWPEYKNRTIFDISNNLSIVILALRPSDEGTYVCVVRKYENDTPVLEHLAEVTLSVKADFPTPSISDFEVPSSNIRRIICSASGGFPEPHLSWLENGEELNAINTTVSQDPETELYAVSSELDFNMTTNHSFMCLIKYGHLRVNQTFNWNTTKQEHFPDN

Several values for one entry are separate records, joined by “and”; a condition that tells them apart may be missing. Identical values can stand only once.

The subject of the test is human pan T cells. Description: Anti-CD3 coimmobilization assay, IFN-gamma. The test is classed as cell-based. The conditions noted are these: Table E34; culture supernatant, 3 days. The method, then: Costimulatory bioactivity of CD80 fusion variants was determined in anti-CD3 coimmobilization assays. 1 nM or 4 nM mouse anti-human CD3 (OKT3, Biolegends, USA) was diluted in PBS with 1 nM to 80 nM rCD80.Fc variant proteins. This mixture was added to tissue culture treated flat bottom 96-well plates (Corning, USA) overnight to facilitate adherence of the stimulatory proteins to the wells of the plate. The next day, unbound protein was washed off the plates and 100,000 purified human pan T cells (BenTech Bio, US) or human T cell clone BC3 (Astarte Biologics, USA) were added to each well in a final volume of 200 μl of Ex-Vivo 15 media (Lonza, Switzerland). Cells were cultured 3 days before harvesting culture supernatants and measuring human IFN-gamma levels with Duoset ELISA kit (R&D Systems, USA) as described above.
Take B1: the “Anti-CD3 IFN-gamma Coimmobilization Assay” value was found to be 114 pg/mL. Turning to B2, the “Anti-CD3 IFN-gamma Coimmobilization Assay” value is 143 pg/mL. The figure for B3 is 137 pg/mL.

Consider B4, for which the “Anti-CD3 IFN-gamma Coimmobilization Assay” value stood at 87 pg/mL. With B5, the “Anti-CD3 IFN-gamma Coimmobilization Assay” value was 54 pg/mL. As to B6, the “Anti-CD3 IFN-gamma Coimmobilization Assay” value worked out at 247 pg/mL. The figure for B7 is 18 pg/mL; for B8 it is 108 pg/mL.

With B9, the “Anti-CD3 IFN-gamma Coimmobilization Assay” value was 162 pg/mL and 135 pg/mL. Consider B10, for which the “Anti-CD3 IFN-gamma Coimmobilization Assay” value stood at 125 pg/mL. Regarding B11, the “Anti-CD3 IFN-gamma Coimmobilization Assay” value was determined as 224 pg/mL. The figure for B12 is 122 pg/mL. The figure for B13 is 571 pg/mL; for B14 it is 75 pg/mL.

As for B15, the “Anti-CD3 IFN-gamma Coimmobilization Assay” value stood at 115 pg/mL. The figure for B16 is 107 pg/mL.
